In patent US20200317768A1 (published 2020):
Residue numbers refer to the chain shown, from its start.

T1: cynomolgus monkey FcγRIIb extracellular domain, His-tagged (cynomolgus monkey)
T1 construct: also called cyno FcγRIIb; cynoFcγRIIb
T1 chain: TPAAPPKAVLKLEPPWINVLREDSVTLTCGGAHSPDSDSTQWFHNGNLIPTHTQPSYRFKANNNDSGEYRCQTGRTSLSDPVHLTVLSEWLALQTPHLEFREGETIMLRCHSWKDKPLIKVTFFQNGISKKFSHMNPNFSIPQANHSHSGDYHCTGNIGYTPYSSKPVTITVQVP

T2: cynomolgus monkey FcγRIIa2 extracellular domain, His-tagged (cynomolgus monkey)
T2 construct: also called cyno FcγRIIa2; cynoFcgRIIa2
T2 chain: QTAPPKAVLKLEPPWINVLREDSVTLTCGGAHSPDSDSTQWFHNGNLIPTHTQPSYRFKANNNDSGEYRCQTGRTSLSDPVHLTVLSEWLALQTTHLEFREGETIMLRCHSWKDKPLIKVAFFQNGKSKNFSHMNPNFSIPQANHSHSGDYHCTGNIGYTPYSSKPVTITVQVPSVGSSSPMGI

T3: human FcγRIIaR extracellular domain, His-tagged (human, UniProt P12318 34-217)
T3 construct: also called human FcγRIIa (type R); FcgRIIaR
T3 chain: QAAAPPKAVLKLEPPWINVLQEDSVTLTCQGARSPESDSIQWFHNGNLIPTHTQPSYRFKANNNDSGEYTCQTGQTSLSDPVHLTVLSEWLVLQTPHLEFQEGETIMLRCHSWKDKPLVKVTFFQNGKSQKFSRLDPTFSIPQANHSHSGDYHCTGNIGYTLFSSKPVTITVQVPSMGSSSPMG

T4: human FcγRIIb extracellular domain, His-tagged (human, UniProt P31994 43-217)
T4 construct: also called FcgRIIb (human)
T4 sequence: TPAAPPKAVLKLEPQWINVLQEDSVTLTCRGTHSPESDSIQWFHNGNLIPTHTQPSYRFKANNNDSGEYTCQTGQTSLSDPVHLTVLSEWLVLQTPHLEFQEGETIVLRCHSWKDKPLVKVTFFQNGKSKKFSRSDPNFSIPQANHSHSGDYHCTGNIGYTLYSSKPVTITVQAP

T5: cynomolgus monkey FcγRIIIaS extracellular domain, His-tagged (cynomolgus monkey, UniProt Q8SPW2 21-206 at identity 1.00))
T5 construct: also called cyno FcγRIIIaS; cynoFcγRIIIaS
T5 chain: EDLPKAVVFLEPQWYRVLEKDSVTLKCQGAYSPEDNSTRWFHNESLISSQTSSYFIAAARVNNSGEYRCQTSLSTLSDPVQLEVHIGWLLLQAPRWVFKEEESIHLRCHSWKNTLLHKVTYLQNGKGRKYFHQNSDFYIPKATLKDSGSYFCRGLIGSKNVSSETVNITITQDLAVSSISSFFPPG

T6: human FcγRIIaH extracellular domain, His-tagged (human, UniProt P12318 34-217)
T6 construct: also called human FcγRIIa (type H); FcgRIIaH
T6 sequence: T3 chain with R134H

T7: cynomolgus monkey FcγRIIa3 extracellular domain, His-tagged (cynomolgus monkey)
T7 construct: also called cyno FcγRIIa3; cynoFcgRIIa3
T7 chain: T2 chain with K127I, N130K, H133P, Q142R

T8: cynomolgus monkey FcγRIIa3 extracellular domain, C-terminal His-tag (cynomolgus monkey)
T8 construct: also called cyno FcγRIIa3; cynoFcgRIIa3; not shown: His-tag added to C-terminus
T8 chain: T2 chain with K127I, N130K, H133P, Q142R

B1: MS_M103205H795-SG1/M103202L889-SK1 (antibody, human IgG1, kappa)
heavy: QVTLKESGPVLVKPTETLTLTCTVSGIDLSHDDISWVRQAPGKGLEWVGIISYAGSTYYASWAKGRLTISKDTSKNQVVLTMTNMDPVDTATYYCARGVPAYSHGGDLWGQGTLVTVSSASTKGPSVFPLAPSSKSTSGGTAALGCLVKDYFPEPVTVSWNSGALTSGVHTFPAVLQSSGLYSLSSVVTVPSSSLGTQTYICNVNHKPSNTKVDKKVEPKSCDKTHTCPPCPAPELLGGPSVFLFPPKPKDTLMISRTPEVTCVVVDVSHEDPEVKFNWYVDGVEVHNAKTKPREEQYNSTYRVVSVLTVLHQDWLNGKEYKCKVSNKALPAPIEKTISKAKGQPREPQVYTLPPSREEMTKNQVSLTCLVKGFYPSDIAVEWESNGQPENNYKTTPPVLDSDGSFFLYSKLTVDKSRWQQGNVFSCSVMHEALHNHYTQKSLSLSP
light: DIVMTQSPATLSLSPGERATLSCTSSQSVYHANWLSWFQQKPGQPPKLLIYWASTLAYGVPSRFSGSGSGTDFTLTISSLQPEDAATYYCAGGYGGGRYAFGQGTKVEIKRTVAAPSVFIFPPSDEQLKSGTASVVCLLNNFYPREAKVQWKVDNALQSGNSQESVTEQDSKDSTYSLSSTLTLSKADYEKHKVYACEVTHQGLSSPVTKSFNRGEC
notes: Parent antibody of the Fc variants; heavy chain constant region SG1, light chain M103202L889-SK1; also called MS1032LO06-SG1
B2: M103205H795-MY016/M103202L889-SK1 (antibody, human IgG1, kappa)
heavy: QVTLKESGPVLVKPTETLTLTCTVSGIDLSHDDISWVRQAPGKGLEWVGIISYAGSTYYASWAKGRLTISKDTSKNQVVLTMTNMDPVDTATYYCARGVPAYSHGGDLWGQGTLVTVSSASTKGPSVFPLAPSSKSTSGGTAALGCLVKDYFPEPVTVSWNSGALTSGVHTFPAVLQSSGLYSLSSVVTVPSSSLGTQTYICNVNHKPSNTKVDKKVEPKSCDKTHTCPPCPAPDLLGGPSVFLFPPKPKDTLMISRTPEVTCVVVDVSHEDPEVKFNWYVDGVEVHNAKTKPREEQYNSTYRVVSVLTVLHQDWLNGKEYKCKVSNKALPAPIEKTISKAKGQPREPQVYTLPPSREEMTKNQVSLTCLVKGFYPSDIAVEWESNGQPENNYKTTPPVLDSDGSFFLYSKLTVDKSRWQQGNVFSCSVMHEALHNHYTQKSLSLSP
light: B1 light
notes: Substitution put into M103205H795-SG1
B3: M103205H795-MY037/M103202L889-SK1 (antibody, human IgG1, kappa)
heavy: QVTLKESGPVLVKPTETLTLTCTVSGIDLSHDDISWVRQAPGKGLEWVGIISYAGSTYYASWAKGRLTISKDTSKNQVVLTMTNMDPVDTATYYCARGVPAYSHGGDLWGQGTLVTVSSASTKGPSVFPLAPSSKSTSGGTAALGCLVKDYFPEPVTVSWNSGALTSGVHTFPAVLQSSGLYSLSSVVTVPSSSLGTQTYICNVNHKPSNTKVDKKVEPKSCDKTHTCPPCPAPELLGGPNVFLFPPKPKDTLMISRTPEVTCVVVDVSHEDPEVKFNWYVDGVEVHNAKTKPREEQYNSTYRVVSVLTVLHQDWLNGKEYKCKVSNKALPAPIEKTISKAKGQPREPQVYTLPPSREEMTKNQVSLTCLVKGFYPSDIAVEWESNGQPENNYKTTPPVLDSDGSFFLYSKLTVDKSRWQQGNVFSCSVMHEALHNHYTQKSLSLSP
light: B1 light
notes: as for B2
B4: M103205H795-MY278/M103202L889-SK1 (antibody, human IgG1, kappa)
heavy: QVTLKESGPVLVKPTETLTLTCTVSGIDLSHDDISWVRQAPGKGLEWVGIISYAGSTYYASWAKGRLTISKDTSKNQVVLTMTNMDPVDTATYYCARGVPAYSHGGDLWGQGTLVTVSSASTKGPSVFPLAPSSKSTSGGTAALGCLVKDYFPEPVTVSWNSGALTSGVHTFPAVLQSSGLYSLSSVVTVPSSSLGTQTYICNVNHKPSNTKVDKKVEPKSCDKTHTCPPCPAPELLMGPSVFLFPPKPKDTLMISRTPEVTCVVVDVSDEDPEVKFNWYVDGVEVHNAKTKPREELYNSTYRVVSVLTVLHQDWLNGKEYKCKVSNKALPKPIEKTISKAKGQPREPQVYTLPPSREEMTKNQVSLTCLVKGFYPSDIAVEWESNGQPENNYKTTPPVLDSDGSFFLYSKLTVDKSRWQQGNVFSCSVMHEALHNHYTQKSLSLSP
light: B1 light
B5: M103205H795-MY010/M103202L889-SK1 (antibody, human IgG1, kappa)
heavy: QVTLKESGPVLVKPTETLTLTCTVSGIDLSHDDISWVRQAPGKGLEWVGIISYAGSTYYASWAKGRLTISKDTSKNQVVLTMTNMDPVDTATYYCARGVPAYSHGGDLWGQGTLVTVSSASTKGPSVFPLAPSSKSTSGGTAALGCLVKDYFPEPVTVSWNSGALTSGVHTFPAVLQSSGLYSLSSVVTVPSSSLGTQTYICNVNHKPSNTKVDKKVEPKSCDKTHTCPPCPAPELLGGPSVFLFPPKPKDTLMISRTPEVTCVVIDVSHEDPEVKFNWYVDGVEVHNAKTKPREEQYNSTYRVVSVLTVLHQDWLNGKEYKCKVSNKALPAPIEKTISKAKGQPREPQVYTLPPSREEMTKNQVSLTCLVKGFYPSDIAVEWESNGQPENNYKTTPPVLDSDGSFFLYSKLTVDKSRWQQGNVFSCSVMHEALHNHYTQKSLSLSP
light: B1 light
notes: as for B2
B6: M103205H795-MY321/M103202L889-SK1 (antibody, human IgG1, kappa)
heavy: B4 heavy with M238H, L297Q, P398M
light: B1 light
B7: M103205H795-MY292/M103202L889-SK1 (antibody, human IgG1, kappa)
heavy: B4 heavy with M238G, G239Y, P398M
light: B1 light
B8: M103205H795-MY312/M103202L889-SK1 (antibody, human IgG1, kappa)
heavy: B4 heavy with M238T, D270E, L297Q, K328T, P398M
light: B1 light
B9: M103205H795-MY008/M103202L889-SK1 (antibody, human IgG1, kappa)
heavy: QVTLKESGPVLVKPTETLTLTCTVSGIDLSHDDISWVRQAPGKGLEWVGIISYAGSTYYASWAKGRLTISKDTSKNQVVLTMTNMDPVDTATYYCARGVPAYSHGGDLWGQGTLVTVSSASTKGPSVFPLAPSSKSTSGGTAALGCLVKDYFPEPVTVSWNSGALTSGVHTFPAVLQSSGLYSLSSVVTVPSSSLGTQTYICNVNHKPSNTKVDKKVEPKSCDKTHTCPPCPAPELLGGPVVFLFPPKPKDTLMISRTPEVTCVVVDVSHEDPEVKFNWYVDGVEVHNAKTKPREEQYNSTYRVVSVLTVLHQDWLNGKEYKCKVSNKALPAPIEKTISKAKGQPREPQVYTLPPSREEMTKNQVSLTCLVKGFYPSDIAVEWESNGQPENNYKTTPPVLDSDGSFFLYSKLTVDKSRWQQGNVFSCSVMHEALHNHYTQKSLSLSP
light: B1 light
notes: as for B2
B10: M103205H795-MY311/M103202L889-SK1 (antibody, human IgG1, kappa)
heavy: B4 heavy with M238T, D270E
light: B1 light
B11: M103205H795-MY038/M103202L889-SK1 (antibody, human IgG1, kappa)
heavy: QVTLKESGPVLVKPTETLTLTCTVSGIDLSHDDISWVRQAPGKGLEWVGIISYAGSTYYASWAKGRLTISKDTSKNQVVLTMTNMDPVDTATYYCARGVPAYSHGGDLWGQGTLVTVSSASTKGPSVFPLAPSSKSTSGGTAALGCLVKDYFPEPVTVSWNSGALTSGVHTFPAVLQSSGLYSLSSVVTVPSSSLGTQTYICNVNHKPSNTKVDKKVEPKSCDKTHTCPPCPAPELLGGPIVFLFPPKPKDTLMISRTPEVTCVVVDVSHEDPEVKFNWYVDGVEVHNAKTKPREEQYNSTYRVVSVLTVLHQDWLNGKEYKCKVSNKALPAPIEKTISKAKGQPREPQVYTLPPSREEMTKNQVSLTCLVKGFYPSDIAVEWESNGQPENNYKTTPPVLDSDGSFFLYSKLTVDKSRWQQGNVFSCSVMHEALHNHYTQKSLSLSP
light: B1 light
notes: as for B2
B12: M103205H795-MY310/M103202L889-SK1 (antibody, human IgG1, kappa)
heavy: B4 heavy with M238T, D270E, L297Q, K328T
light: B1 light
B13: M103205H795-MY281/M103202L889-SK1 (antibody, human IgG1, kappa)
heavy: B4 heavy with M238Q
light: B1 light
B14: M103205H795-MY308/M103202L889-SK1 (antibody, human IgG1, kappa)
heavy: B4 heavy with M238T, D270E, L297Q
light: B1 light
B15: M103205H795-MY006/M103202L889-SK1 (antibody, human IgG1, kappa)
heavy: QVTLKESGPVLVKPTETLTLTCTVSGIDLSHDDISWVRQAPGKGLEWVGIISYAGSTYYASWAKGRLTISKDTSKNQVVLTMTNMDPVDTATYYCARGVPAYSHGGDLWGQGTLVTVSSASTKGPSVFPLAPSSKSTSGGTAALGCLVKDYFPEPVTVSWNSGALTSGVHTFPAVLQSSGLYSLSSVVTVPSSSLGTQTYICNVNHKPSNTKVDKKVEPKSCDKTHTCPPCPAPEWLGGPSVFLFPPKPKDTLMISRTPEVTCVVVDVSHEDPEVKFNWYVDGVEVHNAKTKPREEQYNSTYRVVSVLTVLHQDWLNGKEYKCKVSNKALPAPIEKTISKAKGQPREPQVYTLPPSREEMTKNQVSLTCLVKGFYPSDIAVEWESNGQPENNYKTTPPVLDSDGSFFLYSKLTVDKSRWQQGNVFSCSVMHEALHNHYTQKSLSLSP
light: B1 light
notes: as for B2
B16: M103205H795-MY309/M103202L889-SK1 (antibody, human IgG1, kappa)
heavy: B4 heavy with M238T, D270E, L297Q, P398M
light: B1 light
B17: M103205H795-MY293/M103202L889-SK1 (antibody, human IgG1, kappa)
heavy: B4 heavy with M238G, G239Y, D270E, P398K
light: B1 light
B18: M103205H795-MY013/M103202L889-SK1 (antibody, human IgG1, kappa)
heavy: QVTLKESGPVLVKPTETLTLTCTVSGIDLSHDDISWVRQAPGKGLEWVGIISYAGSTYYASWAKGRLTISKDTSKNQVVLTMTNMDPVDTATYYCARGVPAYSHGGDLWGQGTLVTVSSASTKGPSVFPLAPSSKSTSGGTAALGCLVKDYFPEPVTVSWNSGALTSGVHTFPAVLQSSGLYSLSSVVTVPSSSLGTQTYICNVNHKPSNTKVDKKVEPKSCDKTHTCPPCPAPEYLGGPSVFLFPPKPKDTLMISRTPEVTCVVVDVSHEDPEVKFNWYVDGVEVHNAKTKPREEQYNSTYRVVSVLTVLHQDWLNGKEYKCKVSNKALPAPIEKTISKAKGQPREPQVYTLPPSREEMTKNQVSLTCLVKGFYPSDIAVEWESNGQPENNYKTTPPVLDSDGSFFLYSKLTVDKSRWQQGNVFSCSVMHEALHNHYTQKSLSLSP
light: B1 light
notes: as for B2
B19: M103205H795-MY279/M103202L889-SK1 (antibody, human IgG1, kappa)
heavy: B4 heavy with M238H
light: B1 light
B20: M103205H795-MY318/M103202L889-SK1 (antibody, human IgG1, kappa)
heavy: B4 heavy with M238L, D270E, L297Q, K328T, P398M
light: B1 light
B21: M103205H795-MY014/M103202L889-SK1 (antibody, human IgG1, kappa)
heavy: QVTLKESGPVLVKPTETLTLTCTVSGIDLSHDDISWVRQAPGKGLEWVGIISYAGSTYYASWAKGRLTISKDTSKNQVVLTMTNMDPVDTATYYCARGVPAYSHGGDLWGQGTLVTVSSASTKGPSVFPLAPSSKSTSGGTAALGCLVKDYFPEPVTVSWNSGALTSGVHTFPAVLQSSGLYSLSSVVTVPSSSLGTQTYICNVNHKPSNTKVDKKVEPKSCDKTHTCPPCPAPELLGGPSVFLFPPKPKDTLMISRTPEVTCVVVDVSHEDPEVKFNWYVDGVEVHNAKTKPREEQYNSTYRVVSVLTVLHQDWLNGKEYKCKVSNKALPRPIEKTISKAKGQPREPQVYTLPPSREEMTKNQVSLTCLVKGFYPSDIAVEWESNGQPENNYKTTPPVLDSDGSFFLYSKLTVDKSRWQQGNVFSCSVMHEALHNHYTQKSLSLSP
light: B1 light
notes: as for B2

How the values were obtained:
[1] = target: T1, cynomolgus monkey FcγRIIb extracellular …; assay: SPR; KD of SG1 / KD of variant
[2] = target: T9, human FcγRIIIaV extracellular domain, His-tagged (human, UniProt P08637 17-208); assay: SPR; KD of SG1 / KD of variant
T9 construct: also called FcgRIIIaV

[3] = target: T2, cynomolgus monkey FcγRIIa2 …; assay: SPR; KD of SG1 / KD of variant
[4] = target: T3, human FcγRIIaR extracellular domain, …; assay: SPR; KD of SG1 / KD of variant
[5] = target: T4, human FcγRIIb extracellular domain, …; assay: SPR; KD of SG1 / KD of variant
[6] = target: T5, cynomolgus monkey FcγRIIIaS …; assay: SPR; KD of SG1 / KD of variant
[7] = target: T6, human FcγRIIaH extracellular domain, …; assay: SPR; KD of SG1 / KD of variant
[8] = target: T7, cynomolgus monkey FcγRIIa3 …; assay: SPR; KD of SG1 / KD of variant
[9] = target: T8, cynomolgus monkey FcγRIIa3 …; assay: SPR (Biacore), KD of SG1 / KD of variant
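Further: relative to parent M103205H795-SG1 carrying the SG1 human heavy chain constant region.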

T9 sequence (P08637 17-208 F176V): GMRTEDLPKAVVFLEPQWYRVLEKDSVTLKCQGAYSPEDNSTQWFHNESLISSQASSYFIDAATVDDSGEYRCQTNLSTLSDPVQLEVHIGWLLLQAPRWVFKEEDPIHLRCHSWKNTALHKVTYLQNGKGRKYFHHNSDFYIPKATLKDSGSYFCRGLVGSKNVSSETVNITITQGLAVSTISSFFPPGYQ

Binder | KD fold (SG1 = 1) [1] [fold] | KD fold (SG1 = 1) [2] [fold] | KD fold (SG1 = 1) [3] [fold] | KD fold (SG1 = 1) [4] [fold] | KD fold (SG1 = 1) [5] [fold] | KD fold (SG1 = 1) [6] [fold] | KD fold (SG1 = 1) [7] [fold] | KD fold (SG1 = 1) [8] [fold] | KD fold (SG1 = 1) [9] [fold]
B1 | 1 | 1 | 1 | 1 | 1 | 1 | 1 | 1 | –
B2 | 1.1 | 2.15 | 1.5 | 1.2 | 1.6 | 1.57 | 0.8 | 5.3 | –
B3 | 0.8 | 2.15 | 1.1 | 1.2 | 1.8 | 1.8 | 0.6 | 1.5 | –
B4 | – | – | – | – | – | – | – | – | 1.7
B5 | 0.5 | 3.68 | 1 | 0.6 | 0.9 | 1.64 | 0.6 | 1.2 | –
B6 | – | – | – | – | – | – | – | – | 3.9
B7 | – | – | – | – | – | – | – | – | 7.7
B8 | – | – | – | – | – | – | – | – | 4.6
B9 | 1.1 | 1.29 | 1.4 | 0.6 | 1.8 | 0.97 | 0.4 | 0.7 | –
B10 | – | – | – | – | – | – | – | – | 2
B11 | 0.9 | 1.47 | 1.1 | 0.7 | 1.8 | 1.16 | 0.6 | 1.5 | –
B12 | – | – | – | – | – | – | – | – | 2.4
B13 | – | – | – | – | – | – | – | – | 1.9
B14 | – | – | – | – | – | – | – | – | 1.3
B15 | 2 | 1.12 | 2.7 | 0.6 | 2 | 1.13 | 0.5 | 4.7 | –
B16 | – | – | – | – | – | – | – | – | 2.4
B17 | – | – | – | – | – | – | – | – | 4.4
B18 | 0.9 | 1.98 | 1.1 | 0.2 | 1.2 | 1.09 | 0.3 | 0.3 | –
B19 | – | – | – | – | – | – | – | – | 3.6
B20 | – | – | – | – | – | – | – | – | 0.5
B21 | 1.2 | 1.17 | 2 | 1.1 | 1 | 0.9 | 1.3 | 1.4 | –
